Results published in publication PMC9652321, “Structural basis of human SNAPc recognizing proximal sequence element of snRNA promoter”.
Substitutions are numbered along the chain they refer to.

Key:
mSNAPc#2 SNAP50-R151A = molecular target: T1, mSNAPc#2 SNAP50-R151A (Homo sapiens, UniProt Q5SXM2;Q92966;Q16533;O75971 1-505;1-411;1-268;1-98, R151A); test: SPR; EMSA: 100 mM KCl, 25 mM HEPES-K pH 7.6, 12.5 mM MgCl2, 10 uM ZnCl2, 0.1 mM EDTA, 10% glycerol, 3 mM DTT, 0.5 mM PMSF, 50 nM DNA, RT 30 min; SPR: 100 mM KCl, 12.5 mM MgCl2, 10 uM ZnCl2, 0.1 mM EDTA, 0.05% P20, 25 C; conditions: protein: recombinant; tags: as P1; copies: 1;1;1;1
T1 sequence 1: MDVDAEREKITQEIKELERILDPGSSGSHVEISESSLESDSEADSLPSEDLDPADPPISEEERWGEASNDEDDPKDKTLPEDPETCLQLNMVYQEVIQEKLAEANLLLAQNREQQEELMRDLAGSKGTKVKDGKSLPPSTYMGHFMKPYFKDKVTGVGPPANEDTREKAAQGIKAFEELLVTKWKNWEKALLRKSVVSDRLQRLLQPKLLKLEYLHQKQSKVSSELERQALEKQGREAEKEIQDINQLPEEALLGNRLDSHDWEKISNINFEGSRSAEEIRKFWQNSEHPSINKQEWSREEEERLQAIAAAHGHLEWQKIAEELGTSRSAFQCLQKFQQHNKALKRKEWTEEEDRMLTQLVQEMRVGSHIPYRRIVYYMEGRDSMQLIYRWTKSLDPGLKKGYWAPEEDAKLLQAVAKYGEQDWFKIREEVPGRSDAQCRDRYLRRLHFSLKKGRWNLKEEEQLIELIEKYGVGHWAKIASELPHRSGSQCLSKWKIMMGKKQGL
T1 sequence 2: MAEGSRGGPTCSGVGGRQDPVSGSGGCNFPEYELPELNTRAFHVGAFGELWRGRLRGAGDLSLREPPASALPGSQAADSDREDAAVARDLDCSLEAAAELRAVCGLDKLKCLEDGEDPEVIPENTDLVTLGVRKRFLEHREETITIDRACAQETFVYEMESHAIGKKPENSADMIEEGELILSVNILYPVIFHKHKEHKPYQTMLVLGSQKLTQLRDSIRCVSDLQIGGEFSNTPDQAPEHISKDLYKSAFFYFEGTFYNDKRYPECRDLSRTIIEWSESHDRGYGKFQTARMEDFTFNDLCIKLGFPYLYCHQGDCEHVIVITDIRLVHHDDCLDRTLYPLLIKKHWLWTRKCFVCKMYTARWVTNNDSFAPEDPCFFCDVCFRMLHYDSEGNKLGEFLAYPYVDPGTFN
T1 sequence 3: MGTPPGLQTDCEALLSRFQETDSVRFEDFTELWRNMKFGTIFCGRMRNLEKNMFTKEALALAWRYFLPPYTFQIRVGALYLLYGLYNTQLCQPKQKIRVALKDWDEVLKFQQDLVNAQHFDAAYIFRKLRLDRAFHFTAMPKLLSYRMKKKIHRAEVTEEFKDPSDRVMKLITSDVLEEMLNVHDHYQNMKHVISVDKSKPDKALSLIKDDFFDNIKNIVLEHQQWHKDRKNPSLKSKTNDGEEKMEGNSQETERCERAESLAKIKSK
T1 sequence 4: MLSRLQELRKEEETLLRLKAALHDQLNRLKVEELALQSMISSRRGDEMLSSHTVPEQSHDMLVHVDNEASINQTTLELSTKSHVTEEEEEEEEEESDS

mSNAPc#2 SNAP50-W350A = molecular target: T2, mSNAPc#2 SNAP50-W350A (Homo sapiens, UniProt Q5SXM2;Q92966;Q16533;O75971 1-505;1-411;1-268;1-98, W350A); test: as above; conditions: protein: recombinant; tags: as P1; copies: 1;1;1;1
T2 sequence 1: T1 sequence 1
T2 sequence 2: T1 sequence 2 with A151R, W350A
T2 sequence 3: T1 sequence 3
T2 sequence 4: T1 sequence 4

B1: 25 bp hU6-1 PSE (SPR) (dsDNA)
DNA 1: TGCTTACCGTAACTTGAAAGTATTT
DNA 2: AAATACTTTCAAGTTACGGTAAGCA
Q: For B1, which Kd (mSNAPc#2 SNAP50-R151A) is on record?
A: The Kd was 1.15 µM.

Q: What about the Kd (mSNAPc#2 SNAP50-W350A) of the same binder?
A: Its Kd is 0.887 µM.
